For one assay, the system named is exposed pulp. The conditions noted are these: rat in vivo, reported in Non Patent Literature 1; cited from earlier work.
The test system of a further assay is pulp cells. The conditions noted are these: reported in Non Patent Literature 1; cited from earlier work.
Assay [1] has as its system exposed pulp of rat maxillary first molars. In words: Direct pulp capping experiment using S100-A7 and S100-A7 reacted with MMP20. In kind it is in vivo. Conditions: rat molar, gelatin sponge with 20 μl of 1 μg/ml in PBS, 4 weeks after pulp capping, n=3. The protocol:
Eight-week-old male Wistar rats were injected intraperitoneally with pentobarbital sodium (SomnoPentyl (Trade Mark), Kyoritsu Seiyaku Corporation, Tokyo) (30 mg/kg) as general anesthesia, and carprofen (Rimadyl®, Pfizer, USA) (3 mg/kg) was administered for pain relief. The tooth to be treated was isolated by rubber dam dry field technique, and a surface and surrounding tissue of the tooth were cleaned with an alcohol-soaked cotton ball, and then a cavity was formed using the following method based on the report by Komichi et al. [Non Patent Literature 1]. […] Maxillas, including the test teeth, were then resected and soft tissues were removed, and evaluated by the following methods. […]
Image analysis using the micro-CT (R-mCT2™M, Rigaku Corporation, Tokyo) was performed for quantitative evaluation of the formed tertiary dentin in the samples after the direct pulp capping. […] A CT value equivalent to that of the primary dentin was set as a threshold for extracting the tertiary dentin, and the area of the newly formed tertiary dentin was calculated from a binarized image. The area of the newly formed tertiary dentin was measured in each section, and the volume of the newly formed tertiary dentin was calculated by summing all of the measurements. […]

B1: S100-A7: Protein S100-A7 (PROSPEC, Israel), human-derived Protein S100 (protein, UniProt P31151 2-101, looked up)
Protein S100-A7: SNTQAERSIIGMIDMFHKYTRRDDKIEKPSLLTMMKENFPNFLSACDKKGTNYLADVFEKKDKNEDKKIDFSEFLSLLGDIATDYHKQSHGAAPCSGGSQ
In the case of B1, the “tertiary dentin induction in the direct pulp capping experiment” value in the assay on exposed pulp was “completely covers the surface of the exposed pulp”. Moreover, the “effect on pulp cells in vitro” value with pulp cells is “activates proliferation, differentiation, and mineralization abilities”. Moreover, in assay [1], the “tertiary dentin formation (micro-CT analysis)” value is given as “completely covering the exposed region of pulp”.

The values above are taken from US20250084126A1, “PEPTIDE AND COMPOSITION” (OSAKA UNIVERSITY, priority 2021, published 2025).
